Molecular target: the molecule itself
Test: SEC-MALS

B1: TRAIP Leucine zipper domain (198-280 a.a) (domain or fragment, human, UniProt Q9BWF2 198-280, looked up)
chain: AVYCVSLKKEYENLKEARKASGEVADKLRKDLFSSRSKLQTVYSELDQAKLELKSAQKDLQSADKEIMSLKKKLTMLQETLNL
With B1 as the protein, how does the “stoichiometry N” value read?
Its value is 3.

From publication PMC7253899 (Saudi Journal of Biological Sciences, 2020)
